Consider one compound from patent US7919579B2, “Imaging and therapeutic targeting of prostate and bladder tissues” (The Board of Regents of the University of Texas System, priority 2006, dated 2011).

Entries after “also recorded” stand apart in the source; their conditions may differ.

Data set [1] can be described thus: biodistribution of ^64Cu-DOTA-R11 in normal nude mice. Format: in vivo. Conditions: 5-10 μCi; % ID/g. The procedure:
FIG. 6—Biodistribution data of ^64Cu-DOTA-R11 in normal nude mice (n=4). Data are presented as % ID/g±s.d. SV: seminal vesicle; CG: coagulation gland.
The injected dose of ^64Cu-DOTA-R11 in the biodistribution studies was in range of 5-10 μCi. The animals were sacrificed at specific time points (n=4 at each time point). Organs of interest were removed, weighed, and counted. Standards were prepared and counted along with the samples to calculate the percent injected dose per gram tissue (% ID/g).
In order to explore the application of R11 for the detection of bladder cancer metastasis via PET, the inventors conjugated this peptide with a bifunctional chelator, DOTA (1,4,7,10-tetraazacyclododecane-1,4,7,10-tetraacetic acid), so that R11 could be radiolabeled with ^64Cu. […] The radiolabeled peptide was purified via a C-18 cartridge (Millipore) to have >95% radiochemical purity as determined by radio-TLC and HPLC prior to the biodistribution and PET imaging studies. […] Organs of interest were removed, weighed, and counted. Standards were prepared and counted along with the samples to calculate the percent injected dose per gram tissue (% ID/g). […] In addition, the pharmacokinetics of the ^64Cu-labeled peptide was also evaluated by using a two-compartment model.

Data set [2] is described as follows: in vivo. Also noted: species or system nude mice. Conditions: nude, mouse. From the text:
The lungs were removed from both mice. […] The harvested lungs were imaged by microPET again.

A further data set has as its system T24 lung metastases. Conditions: mouse, in vivo.
Data set [3] is described as follows: in vivo. Conditions: nude, mouse, iv, uptake of control lungs.
Procedure: (§1) The tumor-bearing animal model was established by injecting into the left flank of each nude mouse subcutaneously with human T24 cell suspension (2×10^6 cells in 100-μL of medium). The tumors were allowed to grow for 42 days prior to PET imaging. […] The microPET imaging studies were performed using the microPETR4 rodent scanner (Concorde Microsystems, Knoxville, Tenn.). The scanner provides a 10×8 cm field of view, and the scanner is currently capable of an axial and transaxial resolution of 2 mm, with an absolute sensitivity of 900 counts per second per μCi. Images were reconstructed using Fourier rebinning followed by two-dimensional filtered back projection. […] At 15 min, 60 min, and 4 hr post injection (p.i.), the mice were anesthetized and immobilized in a supine position on a support bed with attached anesthetic gas nose cones for data collection. The imaging collection time was 10 min.
(§2) After the 4-hr microPET imaging, the animals were sacrificed. The lungs were removed from both mice. […] The harvested lungs were imaged by microPET again.
Data set [4] can be described thus: in vivo. Also noted: species or system nude mice. Conditions: nude, mouse. The procedure:
Peptides may be radiolabeled with ^18F or ^64Cu for in vitro and in vivo PET imaging evaluations. The peptides may be prepared using standard F-moc chemistry on an automated peptide synthesizer. Pharmacokinetic parameters of ^64Cu-labeled R11, the lead peptide, were evaluated by the inventors in preliminary experiments by using a two-compartment model. […] However, due to the unknown mechanism of the peptide specificity, it is reasonable to assume that a longer circulation time in the blood is preferable to enhance the image contrast. […]
The tissue distribution of the radiolabeled peptides or peptide conjugates may be evaluated in normal nude mice. […] At selected time points post-injection, animals may be sacrificed, and organs of interest removed, weighed, and counted. The percent injected dose per gram (% ID/g) and percent injected dose per organ (% ID/organ) can be calculated by comparison to a weighed, counted, standard. […] Specifically, blood (10-20-μL) can be drawn from the retroorbital sinus of the animals at 5-min, 10-min, 20-min, and 40-min, and counted on a gamma counter.
The pharmacokinetics of the ^64Cu-labeled peptide was also evaluated by using a two-compartment model. […]
This is another data set of the same source.

Procedure for T24 lung metastases: as §1, §2

A word on the tissue uptake: it is the percentage of the injected dose found per gram of tissue. A lower tissue uptake goes with little accumulation. What is called half-life is the time in which the quantity being followed falls by half. Take `N=C(N)NCCCC(NC(=O)C(CCCNC(=N)N)NC(=O)C(CCCNC(=N)N)NC(=O)C(CCCNC(=N)N)NC(=O)C(CCCNC(=N)N)NC(=O)C(CCCNC(=N)N)NC(=O)C(CCCNC(=N)N)NC(=O)C(CCCNC(=N)N)NC(=O)C(CCCNC(=N)N)NC(=O)C(CCCNC(=N)N)NC(=O)C(CCCNC(=N)N)NC(=O)CNC(=O)CN1CCN(CC(=O)O)CCN(CC(=O)O)CCN(CC(=O)O)CC1)C(=O)O` (stereo not shown) [^64Cu-DOTA-R11, DOTA-G-RRRRRRRRRRR, metal not drawn]: in data set [1], the “accumulation in prostate and bladder” value was “strong tendency to accumulate in prostate and bladder”; the “uptake in other organs (blood, lungs, liver, spleen, kidneys, muscle)” value is recorded as “remarkably low uptake in other organs; also recorded: remarkably low uptake by other organs”. Moreover, in the data set “in vivo [2]”, the tissue to tissue ratio is > 8. The “ex vivo microPET and autoradiography of lungs with T24 metastases” value with T24 lung metastases is “elevated uptake”. Besides, the tissue uptake at 0.25 h in “in vivo [3]” was < 4 %ID/g. The same compound showed a half-life in the data set “in vivo [4]” (elimination half life from other organs (the secondary compartment)) of 17.2 h. Also, in the data set “in vivo [4]” (half-life in the blood (the primary compartment)), the half-life was ~0.178 h.
